Measurements from patent US12527846B2, “Immunodominant proteins and fragments in multiple sclerosis” (UNIVERSITÄT ZÜRICH, priority 2018, dated 2026).

Experiments:
[1] = test system: CD45RA-depleted PBMCs of natalizumab-treated MS patients; assay: RASGRP2 reactivity of peripheral blood-derived memory T cells (thymidine incorporation); format: cell-based, human; settings: n=8 natalizumab-treated MS patients; peptide pools 10 μM or whole protein 0.3 μg/ml, day 7
Method: In order to test reactivity to RASGRP2 in peripheral blood-derived memory T cells, cryopreserved PBMCs (1×10^8 cells) of natalizumab-treated MS patients (NAT; n=8) were thawed and afterwards depleted for CD45RA-expressing cells using magnetic cell sorting (Miltenyi). 2×10^8 CD45RA-depleted PBMCs were seeded per well (10-15 replicate wells per condition) in X-Vivo medium and were either treated with vehicle (DMSO), with CD2/CD3/CD28 beads or pulsed with RASGRP2 peptide pools (final concentration of pool 10 μM) or whole purified RASGRP2 protein (Origene; 0.3 μg/ml). The 15mer-overlapping peptides covering the whole RASGRP2 protein (SEQ ID NO:s 38-98) were organized in 9 peptide pools with 7 peptides per pool covering the sequence of RASGRP2 from N- (pool 1) to C-terminus (pool 9). Thymidine incorporation assay was used to measure proliferation responses to RASGRP2. At day 7 the cells were pulsed with 1 μCi of methyl-3H-thymidine per well (Hartmann Analytic) and harvested after 15 h on a membrane (Tomtec). Incorporation was measured by p-scintillation counting (Wallac 1450, PerkinElmer). The results are shown as dots (mean±SEM). Stimulatory index (SI) was calculated as ratio of peptide or protein stimulation vs. vehicle control. SI values>2 were considered as positive (FIG. 10).

[2] = test system: CSF-infiltrating CD4+ T cells; assay: Recognition of GDP-L-fucose synthase peptides by PHA-expanded CSF-infiltrating CD4+ T cells from 31 CIS/MS patients; format: cell-based, human; settings: three-cluster k-means on patient scores
Method: In order to find out if specific recognition of GDP-L-fucose synthase occurs in CSF-infiltrating CD4+ T cells in patients with different forms of MS (the majority CIS and RRMS), a new protocol was developed to expand fresh CSF-infiltrating CD4+ T cells to high numbers in a single round to minimize variations in the original T cell repertoire. Resting PHA-expanded CSF-infiltrating CD4+ T cells, T cells that are also derived from the CNS compartment, from 31 CIS/MS patients were tested in quadruplicate with the 62 overlapping GDP-L-fucose synthase peptides presented by autologous irradiated PBMCs, as well as with the seven myelin peptides, CEF peptide pool and control beads. All stimulatory indices (Sls; except control beads) were pooled and SI values less than one were treated as having unit value. Cluster k-means analysis was performed to determine the optimal cut-off to differentiate responsive SI values from nonresponsive in this patient population. […] Subsequently, for each patient, all peptides having a median SI (of the quadruplicate wells) greater than 1.455 were identified as positive responses.
Next, patient scores were constructed by calculating the sum of each responsive peptide median SI, weighted by the number of total patients that responded to that peptide. […]
Proliferation was measured 72 h after stimulation by 3H-thymidine (Hartmann Analytic, Braunschweig, Germany) incorporation in a scintillation counter (Wallac 1450, PerkinElmer, Rodgau-Jurgesheim, Germany). The stimulatory index (SI) was calculated as follows: SI=Median (replicates cpm peptide)/Median (replicates cpm without peptide). Proliferation was also measured using a Click-iT™ EdU Flow Cytometry Assay Kit (APC, Molecular Probes, Invitrogen) following manufacturer's instructions. Cells were stained with the following antibodies anti-CD3 (PE-Cy-7, e-Bioscience, San Diego, CA) and anti-TRBV-21 (FITC, Beckman Coulter, Brea, CA) and analyzed by flow cytometry.

B1: RASGRP2: RASGRP2 peptide pools (15mer-overlapping peptides, SEQ ID NOs 38-98, 9 pools) or whole purified RASGRP2 protein (Origene) (protein, listed as Homo sapiens)
chain: AAAAARPAGGSARRWGRPGRCGLLAAGPKRVRSEPGGRLPERSLGPAHPAPAAMAGTLDLDKGCTVEELLRGCIEAFDDSGKVRDPQLVRMFLMMHPWYIPSSQLAAKLLHIYQQSRKDNSNSLQVKTCHLVRYWISAFPAEFDLNPELAEQIKELKALLDQEGNRRHSSLIDIDSVPTYKWKRQVTQRNPVGQKKRKMSLLFDHLEPMELAEHLTYLEYRSFCKILFQDYHSFVTHGCTVDNPVLERFISLFNSVSQWVQLMILSKPTAPQRALVITHFVHVAEKLLQLQNFNTLMAVVGGLSHSSISRLKETHSHVSPETIKLWEGLTELVTATGNYGNYRRRLAACVGFRFPILGVHLKDLVALQLALPDWLDPARTRLNGAKMKQLFSILEELAMVTSLRPPVQANPDLLSLLTVSLDQYQTEDELYQLSLQREPRSKSSPTSPTSCTPPPRPPVLEEWTSAAKPKLDQALVVEHIEKMVESVFRNFDVDGDGHISQEEFQIIRGNFPYLSAFGDLDQNQDGCISREEMVSYFLRSSSVLGGRMGFVHNFQESNSLRPVACRHCKALILGIYKQGLKCRACGVNCHKQCKDRLSVECRRRAQSVSLEGSAPSPSPMHSHHHRAFSFSLPRPGRRGSRPPEIREEEVQTVEDGVFDIHL
donors responding (SI values>2 positive) [1]: All 8 donors responded

B2: GDP L-fucose synthase (protein, listed as Homo sapiens)
chain: MGEPQGSMRILVTGGSGLVGKAIQKVVADGAGLPGEDWVFVSSKDADLTDTAQTRALFEKVQPTHVIHLAAMVGGLFRNIKYNLDFWRKNVHMNDNVLHSAFEVGARKVVSCLSTCIFPDKTTYPIDETMIHNGPPHNSNFGYSYAKRMIDVQNRAYFQQYGCTFTAVIPTNVFGPHDNFNIEDGHVLPGLIHKVHLAKSSGSALTVWGTGNPRRQFIYSLDLAQLFIWVLREYNEVEPIILSVGEEDEVSIKEAAEAVVEAMDFHGEVTFDTTKSDGQFKKTASNSKLRTYLPDFRFTPFKQAVKETCAWFTDNYEQARK
notes: whole protein 1-321, GenBank AAH93061.1 or UniProtKB/Swiss-Prot Q13630
patients characterized as high responders [2]: 19.35%
patients characterized as moderate responders [2]: 19.35%
patients characterized as nonresponders [2]: 61.3%
